Results as given in patent publication US20230392135, “ENGINEERED CAS ENDONUCLEASE VARIANTS FOR IMPROVED GENOME EDITING” (PIONEER HI-BRED INTERNATIONAL, INC., published 2023).

T1: Cas-alpha 10 A40G+E81G (Syntrophomonas palmitatica, UniProt P0DW62 SEQ:1-497)
T1 chain: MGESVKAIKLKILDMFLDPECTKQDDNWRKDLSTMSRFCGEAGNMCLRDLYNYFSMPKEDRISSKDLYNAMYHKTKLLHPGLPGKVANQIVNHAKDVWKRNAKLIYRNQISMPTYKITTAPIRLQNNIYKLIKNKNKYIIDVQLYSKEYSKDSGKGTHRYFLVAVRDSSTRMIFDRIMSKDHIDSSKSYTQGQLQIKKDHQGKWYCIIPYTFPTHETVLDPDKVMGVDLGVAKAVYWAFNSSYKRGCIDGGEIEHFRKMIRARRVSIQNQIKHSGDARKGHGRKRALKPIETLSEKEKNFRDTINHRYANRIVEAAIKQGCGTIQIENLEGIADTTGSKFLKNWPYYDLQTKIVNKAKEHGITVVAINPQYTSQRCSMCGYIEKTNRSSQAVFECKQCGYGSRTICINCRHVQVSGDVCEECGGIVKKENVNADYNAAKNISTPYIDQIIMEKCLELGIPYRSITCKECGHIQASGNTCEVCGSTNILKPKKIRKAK

T2: Cas-alpha 10 A40G (Syntrophomonas palmitatica, UniProt P0DW62 SEQ:1-497)
T2 chain: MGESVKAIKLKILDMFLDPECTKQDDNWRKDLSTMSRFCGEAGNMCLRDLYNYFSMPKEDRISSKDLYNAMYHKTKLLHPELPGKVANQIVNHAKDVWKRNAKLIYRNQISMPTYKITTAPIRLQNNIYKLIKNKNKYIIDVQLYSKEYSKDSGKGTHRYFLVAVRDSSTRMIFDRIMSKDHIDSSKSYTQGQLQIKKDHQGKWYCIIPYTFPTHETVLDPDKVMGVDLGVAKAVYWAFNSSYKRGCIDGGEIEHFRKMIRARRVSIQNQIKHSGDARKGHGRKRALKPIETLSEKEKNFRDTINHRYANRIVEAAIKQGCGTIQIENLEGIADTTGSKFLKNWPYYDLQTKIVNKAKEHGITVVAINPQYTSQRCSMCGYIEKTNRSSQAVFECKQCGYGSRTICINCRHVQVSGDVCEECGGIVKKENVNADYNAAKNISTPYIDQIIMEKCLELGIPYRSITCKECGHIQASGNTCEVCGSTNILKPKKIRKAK

T3: Cas-alpha 10 E81G (Syntrophomonas palmitatica, UniProt P0DW62 SEQ:1-497)
T3 chain: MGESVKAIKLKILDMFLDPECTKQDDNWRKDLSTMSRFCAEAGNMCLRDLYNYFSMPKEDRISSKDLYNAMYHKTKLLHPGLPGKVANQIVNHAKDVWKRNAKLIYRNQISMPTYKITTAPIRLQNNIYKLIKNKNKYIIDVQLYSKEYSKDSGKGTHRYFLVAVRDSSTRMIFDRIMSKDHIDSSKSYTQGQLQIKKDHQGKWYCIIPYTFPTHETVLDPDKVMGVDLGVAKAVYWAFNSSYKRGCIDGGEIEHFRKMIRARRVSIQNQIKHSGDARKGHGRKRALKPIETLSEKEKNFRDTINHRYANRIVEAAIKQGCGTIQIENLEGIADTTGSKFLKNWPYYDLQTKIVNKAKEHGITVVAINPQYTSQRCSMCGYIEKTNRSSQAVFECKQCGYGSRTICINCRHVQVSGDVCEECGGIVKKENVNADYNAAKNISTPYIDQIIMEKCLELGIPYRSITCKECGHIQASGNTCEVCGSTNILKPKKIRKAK

T4: Cas-alpha 10 A40G+E81G+T335R (Syntrophomonas palmitatica, UniProt P0DW62 SEQ:1-497)
T4 chain: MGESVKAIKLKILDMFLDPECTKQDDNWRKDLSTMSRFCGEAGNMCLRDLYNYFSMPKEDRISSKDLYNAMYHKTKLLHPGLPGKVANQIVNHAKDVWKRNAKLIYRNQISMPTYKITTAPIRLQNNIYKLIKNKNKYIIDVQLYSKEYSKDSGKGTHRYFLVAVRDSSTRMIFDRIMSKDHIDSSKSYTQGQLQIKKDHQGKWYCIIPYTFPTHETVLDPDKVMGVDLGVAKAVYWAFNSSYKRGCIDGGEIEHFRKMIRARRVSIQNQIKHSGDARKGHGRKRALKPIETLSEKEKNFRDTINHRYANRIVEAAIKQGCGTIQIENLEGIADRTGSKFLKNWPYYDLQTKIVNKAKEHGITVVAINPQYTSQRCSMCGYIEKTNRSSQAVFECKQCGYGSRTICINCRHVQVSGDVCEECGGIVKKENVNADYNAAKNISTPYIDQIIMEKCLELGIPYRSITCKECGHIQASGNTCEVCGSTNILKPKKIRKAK


Experiments:
Conditions in all cases: tags: SV40 NLS; chain copies: 2
Cas-alpha 10 A40G+E81G [1] = molecular target: T1, Cas-alpha 10 A40G+E81G; experiment: cell_activity; PAM 5'-TTC; yeast, 45 C; >10-fold sectored colonies at 37 C
Description: The cells were then resuspended in 1 ml of EZ 2 solution and aliquoted and either stored at −70° C. or used in the next step. Transformation was performed next by adding 0.5-1 μg (in less than 5 μl) of 2 micron yeast plasmid DNA to 50 μl of competent cells. Optionally, double-stranded DNA repair template with homology flanking the expected Cas-alpha double-strand break site was also included (0.5 μl at 50 μM). After gently mixing in the DNA, 500 μl of EZ 3 solution was added. Next, cells were incubated at 30° C. for 60-90 min. flicking or vortexing the cells 3-4 times over the duration of the incubation. After transformation, cells were grown-out in YPD broth for ˜3 hours, pelleted, washed once with 1 ml of sterile water, resuspended in 1 ml of sterile water, and then ˜200 μl plated onto selective media (for example but not limited to 6.7 g/L yeast nitrogen base without amino acids (Becton Dickinson), 20 g/L glucose (Phytotechnology Labs), 1.92 g/L yeast histidine dropout media (MP Biomedicals) and 20 g/L Bacto Agar (Becton Dickinson)). To determine the culture conditions optimal for activity, cells were incubated at 30° C. until colonies formed, or at a range of temperatures (typically 37° C. and 45° C.) overnight and then placed back at 30° C. until colony growth was visible. […]

Cas-alpha 10 A40G = molecular target: T2, Cas-alpha 10 A40G; experiment: cell_activity; PAM 5'-TTC; yeast, 45 C
Cas-alpha 10 E81G = molecular target: T3, Cas-alpha 10 E81G; experiment: cell_activity; PAM 5'-TTC; yeast, 45 C
Cas-alpha 10 A40G+E81G [2] = molecular target: T1, Cas-alpha 10 A40G+E81G; experiment: cell_activity; PAM 5'-TTC; maize, 37 C
[3] = molecular target: T4, Cas-alpha 10 A40G+E81G+T335R; experiment: cell_activity; PAM 5'-TTC; maize, 37 C

Binder	binding signal (Cas-alpha 10 A40G+E81G [1])	binding signal (Cas-alpha 10 A40G)	binding signal (Cas-alpha 10 E81G)	binding signal (Cas-alpha 10 A40G+E81G [2])	binding signal [3]
sgRNA1, ade2 target 2, 20 nt spacer ; ade2 target 2 (ssRNA ; dsDNA) RNA: AUUUACUCUGUUUCGCGCGCCAGGGCAGUUAGGUGCCCUAAAAGAGCGAAGUGGCCGAAAGGAAAGGCUAACGCUUCUCUAACGCUACGGCGACCUUGGCGAAAUGCCAUCAAUACCACGCGGCCCGAAAGGGUUCGCGCGAAACUGAGUAAUGAAAGUCGCAUCUUGCGUAAGCGCGUGGAUUGAAACUUUAGUGUAGGAACAUCAAC DNA 1: TTTAGTGTAGGAACATCAAC DNA 2: GTTGATGTTCCTACACTAAA	~3 fold vs wild type (red colonies, score 2)	~2 fold vs wild type (red colonies, score 2)	~2 fold vs wild type (red colonies, score 2)	–	–
sgRNA IR ; IR target (ssRNA ; dsDNA) RNA: AUUUACUCUGUUUCGCGCGCCAGGGCAGUUAGGUGCCCUAAAAGAGCGAAGUGGCCGAAAGGAAAGGCUAACGCUUCUCUAACGCUACGGCGACCUUGGCGAAAUGCCAUCAAUACCACGCGGCCCGAAAGGGUUCGCGCGAAACUGAGUAAUGAAAGUCGCAUCUUGCGUAAGCGCGUGGAUUGAAACCACAGGGAGGGAGCAAACAA DNA 1: CACAGGGAGGGAGCAAACAA DNA 2: TTGTTTGCTCCCTCCCTGTG	–	–	–	~5 fold vs wild type indels	~17 fold vs wild type indels
